Consider one molecule from US20240360214A1 (Pfizer, published 2024).

In one experiment the target is huLILRA2 (human, UniProt Q8N149 24-449, limits assumed). The experiment can be described thus: SPR (Biacore), antibody captured.
The target in a further experiment is huLILRA5 (human, UniProt A6NI73 42-268, limits assumed). Nature of the experiment: SPR (Biacore), antibody captured.
A further experiment deals with huLILRA1 (human, UniProt O75019 17-461, limits assumed). Nature of the experiment: SPR (Biacore), antibody captured. For orientation: SPR reads the build-up and loss of mass on a sensor chip optically.
huLILRA1, sequence (O75019 17-461 limits assumed): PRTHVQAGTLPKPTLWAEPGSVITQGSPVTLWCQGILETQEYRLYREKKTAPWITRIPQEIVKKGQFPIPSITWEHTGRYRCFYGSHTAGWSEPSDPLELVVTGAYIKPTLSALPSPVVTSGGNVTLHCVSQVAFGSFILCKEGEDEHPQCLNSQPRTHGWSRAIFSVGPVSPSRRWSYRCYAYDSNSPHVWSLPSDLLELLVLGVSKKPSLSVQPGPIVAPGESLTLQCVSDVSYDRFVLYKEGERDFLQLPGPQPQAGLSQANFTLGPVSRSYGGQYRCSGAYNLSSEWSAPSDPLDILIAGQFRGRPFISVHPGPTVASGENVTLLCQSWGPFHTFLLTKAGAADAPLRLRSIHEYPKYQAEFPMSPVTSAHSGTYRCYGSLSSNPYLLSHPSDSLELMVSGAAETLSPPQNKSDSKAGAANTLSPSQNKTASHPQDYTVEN
Experiment [1] deals with T1, LILRB2 expressed on THP1 cells (human, UniProt Q8N423 22-597).
T1 construct: whole, on cells; also called THP1 LILRB2 expressing cells; THP1-LILRB2 cells
T1 sequence (Q8N423 22-597): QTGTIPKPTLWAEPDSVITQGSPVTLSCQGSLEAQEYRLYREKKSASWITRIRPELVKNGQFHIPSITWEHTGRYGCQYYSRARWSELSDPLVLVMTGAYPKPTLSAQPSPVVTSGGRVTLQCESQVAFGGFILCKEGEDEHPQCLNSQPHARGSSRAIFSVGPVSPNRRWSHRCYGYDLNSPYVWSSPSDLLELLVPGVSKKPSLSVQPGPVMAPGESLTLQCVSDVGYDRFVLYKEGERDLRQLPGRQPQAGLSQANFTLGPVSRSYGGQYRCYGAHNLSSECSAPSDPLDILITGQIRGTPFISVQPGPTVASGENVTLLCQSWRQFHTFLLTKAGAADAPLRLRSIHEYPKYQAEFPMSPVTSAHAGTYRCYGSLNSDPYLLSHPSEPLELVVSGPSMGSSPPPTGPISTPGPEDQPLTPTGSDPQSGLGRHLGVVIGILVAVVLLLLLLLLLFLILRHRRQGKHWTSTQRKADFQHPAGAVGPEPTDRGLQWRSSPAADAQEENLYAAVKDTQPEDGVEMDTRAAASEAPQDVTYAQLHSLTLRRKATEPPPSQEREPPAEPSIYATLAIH
The experiment can be described thus: flow cytometry competition with PE HLA-G tetramer on THP1-LILRB2 cells; lower end of the printed range 1.7-6 nM. As to the method:
(§1) LILRB1 or LILRB2 overexpressing THP1 cells were prepared in FACS buffer (0.5% BSA in PBS) and seeded in 100 μl/well (96 well plate) at 1λ10⁶ cells/ml concentration. The tested antibodies were serially diluted 3-fold into assay buffer starting from 200 nM. 40 μl of serial diluted antibody together with 40 μl of PE labelled HLA-G tetramer (FRED HUTCH IMT40509) at 2 ug/ml were added to each well and incubated on ice for 1 hour. The cells were washed 2 times with FACS buffer and resuspended in 50 μl/well FACS buffer containing 1:1000 dilution of LIVE/Dead fixable violet dead cell stain (Invitrogen #L34964), incubated on ice for 15 minutes. The cells were then washed with FACS buffer for 2 times and resuspended in 80 μl of Cytofix buffer (BD Cat #554655).
For orientation: A flow cytometer gives signals particle by particle.

Experiment [2] has as its target T1, LILRB2 expressed on THP1 cells. The experiment can be described thus: flow cytometry competition with PE HLA-G tetramer on THP1-LILRB2 cells; upper end of the printed range 1.7-6 nM. As to the method:
as §1

Experiment [3] shares this target. Nature of the experiment: flow cytometry competition with PE HLA-G tetramer on THP1-LILRB2 cells (THPB2). The method, then:
as §1

Experiment [4] has as its target T2, human LILRB2 (huLILRB2), purified recombinant protein (human, UniProt Q8N423 22-458, limits assumed).
T2 construct: Bought protein, used as the SPR analyte and as the ELISA coat; also called huLILIB2
Nature of the experiment: SPR (Biacore 8K, 37 C), antibody captured by anti-human Fc, huLILRB2 as analyte, 1:1 fit. The method, then:
Biacore kinetic assays were conducted at 37° C. with a collection rate of 10 Hz using the Biacore 8K and 8K+ instruments (Cytiva). […] The final capture levels of the antibodies ranged from 20 resonance units (RU) to 60 RU. HBS-EP+pH 7.4 (10 mM HEPES pH 7.4, 150 mM NaCl, 3 mM EDTA, 0.05% Tween 20) was used as sample and running buffer. Flow cell 1 was used as a reference flow cell. Two-fold serial dilutions of human LILRB2 or LILRB1 (R&D Systems, Catalog number: 8429-T4) were prepared with concentrations from 45 nM to 1.667 nM for LILRB2; 405 nM to […] for LILRB1. Dilutions were prepared in duplicate and injected over all flow cells for 60 s at flow rate of 50 μl per minute. Dissociation was monitored for 600 s and the surface was regenerated with two 30 s injections of 3M MgCl₂ at flow rate of 50 μl per minute. The resulting data was double referenced (Myszka, D. G. Improving biosensor analysis. J. Mol. Recognit. 12:279-284; (1999). Rate constants and affinities were determined by fitting the sensorgram data to a Langmuir 1:1 model using Biacore Insight Evaluation software version 3.0.12 (Cytiva).

T2 sequence (Q8N423 22-458 limits assumed): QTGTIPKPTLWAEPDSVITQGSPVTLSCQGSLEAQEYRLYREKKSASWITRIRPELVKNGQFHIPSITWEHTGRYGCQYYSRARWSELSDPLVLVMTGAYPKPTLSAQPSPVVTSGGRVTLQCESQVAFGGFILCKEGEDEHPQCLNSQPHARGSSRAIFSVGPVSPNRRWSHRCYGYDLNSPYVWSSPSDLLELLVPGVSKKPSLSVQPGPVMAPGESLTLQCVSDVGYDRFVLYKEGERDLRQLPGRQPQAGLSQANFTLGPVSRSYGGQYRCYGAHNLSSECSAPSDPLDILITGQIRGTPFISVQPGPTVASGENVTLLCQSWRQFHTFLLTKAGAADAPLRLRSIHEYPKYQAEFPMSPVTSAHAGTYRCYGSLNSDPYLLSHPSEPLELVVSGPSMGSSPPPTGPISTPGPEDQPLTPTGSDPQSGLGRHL
huLILRA5, sequence (A6NI73 42-268 limits assumed): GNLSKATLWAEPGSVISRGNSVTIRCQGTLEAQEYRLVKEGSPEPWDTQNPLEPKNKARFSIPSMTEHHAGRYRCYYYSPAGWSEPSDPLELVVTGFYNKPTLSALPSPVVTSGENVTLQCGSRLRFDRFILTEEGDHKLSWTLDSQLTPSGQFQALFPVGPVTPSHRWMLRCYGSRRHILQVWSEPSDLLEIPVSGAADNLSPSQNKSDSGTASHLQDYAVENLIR
huLILRA2, sequence (Q8N149 24-449 limits assumed): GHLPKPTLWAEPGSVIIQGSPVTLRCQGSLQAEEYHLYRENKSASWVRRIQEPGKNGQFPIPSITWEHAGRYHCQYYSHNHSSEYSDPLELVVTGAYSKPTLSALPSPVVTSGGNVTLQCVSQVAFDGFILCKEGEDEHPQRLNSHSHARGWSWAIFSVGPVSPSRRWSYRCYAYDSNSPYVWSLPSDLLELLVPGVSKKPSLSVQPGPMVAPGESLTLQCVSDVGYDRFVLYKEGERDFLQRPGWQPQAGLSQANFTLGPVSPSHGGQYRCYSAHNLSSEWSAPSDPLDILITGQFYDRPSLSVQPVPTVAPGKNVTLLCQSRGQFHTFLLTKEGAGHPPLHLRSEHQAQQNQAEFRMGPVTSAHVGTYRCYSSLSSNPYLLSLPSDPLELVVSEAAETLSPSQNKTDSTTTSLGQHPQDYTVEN

B1: anti-LILRB2 antibody Ab-B2-1825 (antibody, human IgG1, lambda, V domains shown)
VH: EVQLLESGGGLVQPGGSLRLSCAASGFTFSSYAMSWVRQAPGKGLEWVSAISGSGGSTYYADSVKGRFTISRDNSKNTLYLQMNSLRAEDTAVYYCWRWLNLGDAFDIWGQGTMVTVSS
VL: QSVLTQPPSASGTPGQRVTISCTGSSSNIGSNTVNWYQQLPGTAPKLLIYSDNQRPSGVPDRFSGSTSGTSASLAISGLRSEDEADYFCATWEDVLAGYVVFGGGTKLTVLG
A word on the IC50: it is the midpoint of a concentration-inhibition curve. A higher IC50 goes with lower potency. One may read the EC50 as the concentration at which the effect is half-maximal. A higher EC50 goes with a need for much substance. As usually defined, the Kd is a measure of binding affinity in units of concentration. For orientation: koff means a measure of how fast the partners let go of each other. The kon is the rate constant with which the complex forms. By t½ is commonly meant the time needed for the level to fall by half in the phase considered. As to B1, the binding result in the experiment with huLILRA2, with huLILRA5 and with huLILRA1 was “no binding” each time. The results for the half-inhibitory concentration (IC50) in experiment [1] and in experiment [2] were at least 1.7 nM and at most 6 nM, respectively. The molecule further had an EC50 in experiment [3] of 3.43 nM. Besides, the Kd in experiment [4] was 0.59 nM. Further, in experiment [4], the dissociation rate constant (koff) came to 0.000276 s⁻¹. In addition, in experiment [4], the kon was determined as 810000 M⁻¹ s⁻¹. In experiment [4], the “t½” value came out at 54.2 min.
